Source: the supplement of paper PMC9170038

System: MS2 coat protein
Assay: apparent KD of MS2 coat protein; higher = weaker reporter binding
Conditions: Eterna round: R107
Summary of the method: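 Designed RNA switches were transcribed on-chip from Illumina sequencing clusters. They were then titrated with SNAP-549-labelled MS2 coat protein (twofold steps, 0.7 or 1.5 nM to 3 µM; 0.8–1.5 h to 10–20 min per step) in 100 mM Tris-HCl pH 7.5, 80 mM KCl, 4 mM MgCl2, without or with constant ligand. Apparent KD is the per-design median of normalised cluster binding-curve fits.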

[1] = input ligand: theophylline 20 uM
[2] = input ligand: theophylline 2 mM
[3] = input ligand: tryptophan 2.4 mM

Sequence	apparent KD of MS2 coat protein (input ligand: arginine 13.2 mM) [nM]	apparent KD of MS2 coat protein (input ligand: none) [nM]	apparent KD of MS2 coat protein [1] [nM]	apparent KD of MS2 coat protein [2] [nM]	apparent KD of MS2 coat protein [3] [nM]
AGCCCGGGAGCGGCCGCCACUGGAGGCUUAGCGCGACAUGAGGAUCACCCAUGUGUGCCCGGCGUUAGGACCGGGCUCGCGUGGU [#1 Same State - Tryptophan B Attempt #22 (HarryS)]	15.3	31.2	52.7	46.1	35.2
AGCACUGUGACGGCCGCCACUACAUAAGAUGGGUGGUCAGGUUCAUUACAUGAGGAUCACCCAUGUAGGACCGGGUCUCAGUGCA [Omei Trp Exc B A v10]	7.97	9.29	16.5	10.9	7.71
CAAUAAGUACCGGUCCUCAGAUCCUCAUGACGAGGACCGGUACGGCCGCCACUCGAAACAUGAGGAUCACCCAUGUAAUAAUAAC [Brourdmod02]	20.6		68.4	51.9	
GGAUAGGACACGGCCGCCACUAGCUAGGAUACUAGCAACAUUUCCUCAUCUGAGGAUCACCCAGGUAGGACCGGGUGUCCUAUCG	172		683	1070	565
CACGCACGAUCGGCCGCCACUCGUGUAGCUUACAUGAGGAUCACCCAUGUAUGUUCAUUCAUAUAGAGGACCGGGAUCGUGCGUG [#05 Same State - Tryptophan B]	9.09	12.8	18.5	12.1	11.7
GCACCAGGUACGGAUACCAGCUGCCCGAGAUACAUGAGGAUCACCCAUGUGACCUGGUUUAGCCCUUGGCAGCUGUACCUGGUGC [#14 Same State - Theophylline B]	13		13.8		14.3
AGCCAUGGAAACAUGGCGGCGGCAUGAGCGCGAGGACCGGUACGGCCGCCACUCGGGCAACAUGAGGAUCACCCAUGUUCCUCAU [ETA NP+V+V2 #20 +-Same Structure]	62.5	101	140	158	363
GGGUACAUCGCGGCCGCCACUCAUGUAAAUGCGUGAGGAUCACCCAUGCCGAUGGAGACAUCGGAGAGGACCGGGUGAUGUACCG	27.9	38.5	40	52.7	46.7
ACAUGAGGAUCACCCAUGUACAUCACCCGACGAGGACCGGUACGGCCGCCACUCGGGUAUAUAUAUACAUCGGGUGAUUUUGCAU [#21 Tryptophan A Same State]	27.4	20.9	108	79.5	26.5
UCAUAAGUACCGGUCCUCAGAUCCUCAUGACGAGGACCGGUACGGCCGCCACUCGAAACAUGAGGAUCACCCAUGUAAUAACAUU [Brourdmod23]	19.5		28.4	26.1	
CAUAGCAAAAGUGAUACCAGAGUUCGAGGGAACAUGAGGAUCACCCAUGUGCUUGUACAACUCCCUUGGCAGCACAGAGCAAUUA [theeternabot_sameState_MS2_Theo_B_16]	24.3		22.1		26.9
CCAUGGUUGACGGCCGCCACUCAUUAGUCUUUGAGGUUGGCACAUGAGGAUCACCCAUGUCUGCAGAGGACCGGGUCUCGCCACA [theeternabot_sameState_MS2_Trp_B_15]	39.8		67.3	54.4	
AGUAUCAGUGGAAGGAGCGUCGCGACUGCUACAUGAGGAUCACCCAUGUCGCCUUGAGCGCGACAGGUAGGUCGCCACGGUAGGC [SS-ArgB1]	28.6	49.6	68.8	72.1	40.3
UGUAUGUGAUCUGAUACCAGUCCAACUGGUAAAGCAUGAGGAUCACCCAUGUAAAAUUGGGACCCUUGGCAGCAGAUCGCAUACU	146	166	190	316	138
GGCCAGGCAGCGGCCGCCACUUAGUGGGCCGAAUGUCCUUUGCUGAACAUGAGGAUCACCCAUGUAAGGACCGGGCUGUUCCGCA [theeternabot_exclusion_MS2_Trp_B_30]	27.4		42.3	41.5	
GGCGCGGUGAUGGUAGCCGGACGCUAGGUACGAGGACCGGUACGGCCGCCACUCGGAGUCCUGGGACAUGAGGAUCACCCAUGUA [Same State Trp A GF18]	78.9	161	118	209	63.4
